According to the RNAGym collection of RNA variant scans (doi:10.1073/pnas.2313332121):
Fewer inactive variants are shown than the library holds.

B1: TPR 5TU (parent)
chain: GGAUCUUCUCGAUCUAACAAAAAAGACAAAUCUGCCACAAAGCUUGAGAGCAUCUUCGGAUGCAGAGGCGGCAGCCUUCGGUGGCGCGAUAGCGCCAACGUUCUCAACUAUGACACGCAAAACGCGUGCUCCGUUGAAUGGAGUUUAUCAUG

Variants of: B1
Assay: polymerase ribozyme fitness, log enrichment relative to wild type (log ratio); higher = more active; in vitro selection for triplet polymerase activity
How it was run: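 After PCR construction and transcription, each subunit's mutant library from a heterodimeric triplet polymerase ribozyme was annealed with a biotinylated primer, the partner subunit and triplets. Incubation was frozen, at −7 °C, and extended constructs were gel-excised, bound to streptavidin beads and amplified by RT-PCR, in one selection round done in triplicate. Fitness is the logarithm of a genotype's enrichment divided by that of the wild type, from inverse-variance-weighted replicate averages of Illumina-sequenced inputs and outputs. The base of the logarithm is 2, and genotypes needed ≥10 input reads and ≥1 read per output.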

Variant | polymerase ribozyme fitness (log ratio)
C36A A60C G71C C79A G84A A91G C93G | ≤ -4.2
A37C C93U | -1.64
A37C C93A | -2.8
C36U C96G | -2.56
C35U A41G C85U G141U | 1.25
C35U A41G C96A U144A | -0.485
C36G U146G | -3.97
C35U C76U C99U | -1.5
C35G C85G U134A G136A | ≤ -4.2
C35U G62A G83U G86C C125G A142U | ≤ -4.2
C35U A115U | -1.54
C35U C76G A89U A97G | ≤ -4.2
C35U U55A G84U A147C | -2.79
A37C A52U C96A | -2.87
C36U C99U U145A | -1.47
C36A A39C U56C C87U U144G | ≤ -4.2
C35G U55A G94A U101G C131U | ≤ -4.2
C35U U101G A110U A138G | ≤ -4.2
C36G G86A G117U U130A G140A | ≤ -4.2
C35U C36A U55G U127A | -3.9
C35U C93A A120C G126A A150U | -4
A37C C54U A60C U61G C96U C99A G112A A115G | ≤ -4.2
A37C G48A C51U G86C G88A | ≤ -4.2
A37C A40C A66U C75G G94U A120G C131G G141A | ≤ -4.2

Variant | polymerase ribozyme fitness (log ratio)
C36G C54U G92A A110G G143A | ≤ -4.2
C35U G83A | -0.173
C35G C87U C118U | -4.18
C35U C99G A119C G141U | -1.83
A37C A40U G83A C93G A142G | ≤ -4.2
C35U C57U C95G C99G A120U | -3.85
C35U C116A | -0.104
C36A U82A A98G | -4.01
C36G U44G G71U C96A C108G G140C | ≤ -4.2
C36G U145A | -3.88
A37C G59A G81A C96A | -2.74
C35G G58C C125U A147C | ≤ -4.2
C36U U61G | -2.22
C35G G62A G68A C69G G71C C72A A73G G74C A91C C114U C132U | ≤ -4.2
C35U A49G G88U C93G | ≤ -4.2
C35U C54G A66U C79A G80A G83C G84A C96U U101G U148C | ≤ -4.2
C36U G92C C116U C118U U144C | ≤ -4.2
C35U A41C U53A C75G C114U G136U | ≤ -4.2
C35G C76U | -3.99
C35G C76A | -4.13
C35U A73G | -0.161
C36U A39U | -2.71
C35G G50A G58A A66C C75A C87U | ≤ -4.2
C35U U127G | -4.01

Variant | polymerase ribozyme fitness (log ratio)
C35U G59A G83U A98C G128C | -3.94
C35U G42A G65C U77G C87A U101G G143A U151A | ≤ -4.2
C35G U55G C85G U144A | ≤ -4.2
C35U A106U A142U | -4.15
C36U G58U G94A C105U C125U U135C | -3.89
C35U G92A C96A | ≤ -4.2
C35U G59C G81A G83A A110G G133C | ≤ -4.2
C35U A73U C75G C76G U90C | ≤ -4.2
A37C C95U | -2.04
A37C C95G | -2.69
C35U G50A C87G G124A | -3.99
C35U G46A A119G A121U | -1.45
C35U U56A C57A A97U C123U U130C | -0.0554
C35G G141C | -3.66
C36A U78A | ≤ -4.2
C36A A122U G126A G136C | ≤ -4.2
A37C A49C A91G G94A C96U A106G | ≤ -4.2
C35U G92U C116U | 0.616
C36U G128C G140U | ≤ -4.2
C36A G42A U45G G81A C87A A137C | ≤ -4.2
A37C A115U | -1.16
C35U C51U U55C C85A U101C C103A U144A | ≤ -4.2
C36G G59U C105G | ≤ -4.2
A37C C93U G136C G141U | -3.34

Variant | polymerase ribozyme fitness (log ratio)
C36A U56A | -3.62
A37C C85U G88C A137U | ≤ -4.2
C36U U145A G152A | -3
C35G C54U A60U C85A | ≤ -4.2
C35U A49G G70A C95G C105A | ≤ -4.2
C36A C96A G133A | ≤ -4.2
C36U U44A A122C | -4.15
C35U C38A G83U G152A | ≤ -4.2
C36A C85U A89U C96G | ≤ -4.2
C36A C87U G140C | ≤ -4.2
C35G G68C C125A | -4.18
C36A A49C G71U G92A A107G U145C | ≤ -4.2
C36A A66C | ≤ -4.2
A37C C95A A97C A121U | -2.71
C36A U55A C95G A97U U135A | ≤ -4.2
C35U G140C | -4.13
C36G G84A | -4.19
C36U C79A C87U A115C A122C C131G | ≤ -4.2
C35U A89U C95A G126A A142C | ≤ -4.2
C36U C69G A73G C87A G100U G112C G141C | ≤ -4.2
C35G U139C | ≤ -4.2
C35U A49C C79A C87A A119U | ≤ -4.2
C36A C105U U127G | ≤ -4.2
C36A A40C G83C A106G U144A | ≤ -4.2

Variant | polymerase ribozyme fitness (log ratio)
C35U A47C U56G A64U A106U G133U | ≤ -4.2
C35U G136A | 0.0897
A37C A40C G48C G74A G94A G126C G133A G136A A150U | ≤ -4.2
C36A C54G C57A G86A U139G | ≤ -4.2
C36U G94A C125A | -1.63
A37C C57U G86A C95G C99G C131U | ≤ -4.2
C36A C57G U77C A119G | ≤ -4.2
C36U A52G G70U G84A | -2.84
C35U C54A G84A U146C | -1
C35U G48A U78C C96G G117C | ≤ -4.2
A37C C95A A138C G141C | ≤ -4.2
C35U C96G | -0.818
C35U C96U | -0.126
C36U C54A G58A G70A G84A C95A A115U G143U | ≤ -4.2
C35U A49C U53G C75G G92A A119U A120G G133U A138C | ≤ -4.2
C36A U56G C85A | ≤ -4.2
C35U C69U A91G C118A | -3.8
C35U C129U | -0.479
C36U C76U C85G | -2.42
A37C C105U | -0.652
C35U C38G U56A | -1.43
C36A G62C C63U | ≤ -4.2
C36U A40G C43G U55A A91C G126A G141U | ≤ -4.2
C35G G62C G67C C85G C131A A147U | ≤ -4.2

Variant | polymerase ribozyme fitness (log ratio)
C36U G59A U82G A97U | -1.3
C35U G86U | -1.43
C35G C85A C105G A113U | ≤ -4.2
A37C C114U | -3.07
C35U G136A G143U | -3.68
C35U U53A | -0.557
C35U G58C U90G U104A G126A U135A U145G | ≤ -4.2
C35U G81U U82G G88U G94U U139C C149A | ≤ -4.2
C36A A73U G92U U134G G143U | -4.13
C36A U45C C95U C114U A119U | ≤ -4.2
C36U A41G G83C G84U C116U | -4.09
C36G A47G U55C G84U C149A | ≤ -4.2
C36U G62A C72U | -3.23
C36A G50C U53A U56A C93U A115U | ≤ -4.2
C36A C96U U111G | ≤ -4.2
C36U G81A C93G G136A | ≤ -4.2
A37C G50U G59U G86U | -2.65
A37C G46A U61A G74A C93U A122U | ≤ -4.2
C35U G92U | -0.627
C36U C75G C96G A121U | ≤ -4.2
C35U G50C C76A C79G C87G A142C G152U | ≤ -4.2
C36G G83U C125A G141C U145A | -4.09
C35U C118U | -0.573
C36U U102G C108A C116U A122G | ≤ -4.2

Variant | polymerase ribozyme fitness (log ratio)
A37C A97U | -0.373
C35U C38G G86A G126A G136U | ≤ -4.2
C35G G68A A91U U144C | ≤ -4.2
C36U A66G G112A A142U | ≤ -4.2
A37C A60C G67C C76G | -3.82
A37C A49C G59C G83C C95A A122U G143U A150G | ≤ -4.2
C36U A60C C63U C103G | ≤ -4.2
A37C A64C G71A C85A G126C | ≤ -4.2
C35U C43G C93A C103G | ≤ -4.2
C35U A52C C85U G117U | -2.29
C36U A73U A138U G140C | ≤ -4.2
A37C C116G | -0.143
A37C C38G C85U | -1.28
C35U C79A G81U C93A U102A U127A | ≤ -4.2
C36A C87G A107C | ≤ -4.2
C35U G141A | 0.194
C36A A64U A107U U139A G140C | ≤ -4.2
C36A U45A C87G A91G | ≤ -4.2
A37C A47C G88A G100A A137U | ≤ -4.2
C35U U55A C96U | -0.218
A37C C95U G141C | -1.7
C36U C95U | -1.98
C36G C87G A91C A98U C114U A119U A122G | ≤ -4.2
